Source: US20160015828A1 (AbbVie / Abbott, published 2016)

T1: human DLL3 (UniProt Q9NYJ7 27-492)
T1 chain: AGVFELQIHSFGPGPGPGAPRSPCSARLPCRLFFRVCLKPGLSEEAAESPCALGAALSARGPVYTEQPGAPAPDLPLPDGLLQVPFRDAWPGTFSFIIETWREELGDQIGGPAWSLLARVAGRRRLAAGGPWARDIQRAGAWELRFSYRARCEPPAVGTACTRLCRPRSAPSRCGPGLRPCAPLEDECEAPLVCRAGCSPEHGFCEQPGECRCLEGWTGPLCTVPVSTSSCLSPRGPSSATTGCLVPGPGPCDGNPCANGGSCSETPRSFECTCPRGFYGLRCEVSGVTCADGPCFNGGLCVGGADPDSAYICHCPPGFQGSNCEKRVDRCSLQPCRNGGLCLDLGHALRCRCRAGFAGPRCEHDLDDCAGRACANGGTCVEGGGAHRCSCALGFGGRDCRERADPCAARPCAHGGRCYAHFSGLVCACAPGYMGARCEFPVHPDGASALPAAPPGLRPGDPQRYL

T2: rat DLL3 over-expressed on 293 cells (rat, UniProt O88671 33-589)
T2 construct: whole, on cells
T2 sequence (looked up): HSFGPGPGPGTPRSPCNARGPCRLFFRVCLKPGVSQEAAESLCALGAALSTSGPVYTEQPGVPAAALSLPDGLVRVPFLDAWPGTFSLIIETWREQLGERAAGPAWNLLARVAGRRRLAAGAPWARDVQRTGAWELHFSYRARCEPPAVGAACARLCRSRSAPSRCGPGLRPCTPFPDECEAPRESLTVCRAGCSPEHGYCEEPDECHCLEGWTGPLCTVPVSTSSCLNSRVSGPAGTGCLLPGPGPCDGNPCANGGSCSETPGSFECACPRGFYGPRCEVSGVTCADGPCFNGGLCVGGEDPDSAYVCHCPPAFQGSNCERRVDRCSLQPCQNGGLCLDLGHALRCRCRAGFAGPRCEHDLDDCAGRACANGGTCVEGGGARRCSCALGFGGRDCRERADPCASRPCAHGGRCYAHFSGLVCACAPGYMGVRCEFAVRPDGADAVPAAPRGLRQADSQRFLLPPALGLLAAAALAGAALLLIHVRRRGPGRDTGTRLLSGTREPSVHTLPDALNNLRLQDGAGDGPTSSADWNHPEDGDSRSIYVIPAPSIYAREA

T3: human DLL3 over-expressed on 293 cells (human, UniProt Q9NYJ7 27-618)
T3 construct: identical extracellular and transmembrane regions; also called hDLL3; Delta-like ligand 3
T3 sequence: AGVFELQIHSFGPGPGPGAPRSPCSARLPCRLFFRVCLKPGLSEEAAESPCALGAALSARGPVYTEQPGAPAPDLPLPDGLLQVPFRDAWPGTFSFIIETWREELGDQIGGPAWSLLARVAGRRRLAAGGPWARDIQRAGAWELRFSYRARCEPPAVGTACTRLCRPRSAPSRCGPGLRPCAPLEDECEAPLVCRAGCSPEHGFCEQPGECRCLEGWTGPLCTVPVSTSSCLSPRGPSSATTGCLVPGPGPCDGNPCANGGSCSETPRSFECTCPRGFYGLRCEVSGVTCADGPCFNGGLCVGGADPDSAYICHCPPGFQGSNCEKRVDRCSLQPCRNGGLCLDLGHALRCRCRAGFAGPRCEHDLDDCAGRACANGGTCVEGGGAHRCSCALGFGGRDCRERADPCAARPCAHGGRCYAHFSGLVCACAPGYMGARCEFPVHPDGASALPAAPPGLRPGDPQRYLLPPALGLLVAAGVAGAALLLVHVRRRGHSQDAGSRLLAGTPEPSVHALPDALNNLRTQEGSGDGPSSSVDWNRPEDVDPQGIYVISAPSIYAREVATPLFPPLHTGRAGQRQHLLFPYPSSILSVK


Columns and labels:
human DLL3 [1] = biological target: T1, human DLL3; assay: BLI (ForteBio)
[2] = biological target: T2, rat DLL3 over-expressed on 293 cells; assay: flow cytometry, 293 cells over-expressing rat DLL3
Protocol: (§1) In addition to evaluating the exemplary modulators as set forth above, flow cytometry was performed in order to confirm that selected SC16 antibody modulators can immunospecifically associate with human DLL3 and to determine whether the same antibodies cross-react with cynomolgus, rat and/or murine DLL3. More particularly the exemplary murine antibodies were analyzed by flow cytometry using a FACSCanto II and 293 cells over-expressing murine, rat, cynomolgus or human DLL3. In some cases, exemplary murine modulators were analyzed by flow cytometry using a FACSCanto II and yeast cells displaying cynomolgus DLL3 using the methods described by Cochran et al. (J Immunol Methods. 287 (1-2):147-158 (2004).

[3] = biological target: T3, human DLL3 over-expressed on 293 cells; assay: flow cytometry, 293 cells over-expressing human DLL3
Protocol: as §1

human DLL3 [4] = biological target: T1, human DLL3; assay: BLI (ForteBio)
human DLL3 [5] = biological target: T1, human DLL3; assay: SPR (Biacore)

Kd (human DLL3 [1])	binding result [2]	binding result [3]	Kd (human DLL3 [4])	Kd (human DLL3 [5])	Binder
–	–	binds	–	0.2 nM	SC16.25 (antibody, V domains shown, murine mAb; V regions only) VH: QVTLKESGPGILQPSQTLSLTCSFSGFSLSTSGMGVGWIRQPSGEGLEWLTDIWWDDNKYYNPSLKSRLTISKDTSSNQVFLNITSVDTADTATYYCARRVNYYYDPYYAMDYWGQGTSVTVSS VL: QIVLTQSPAIMSASPGEKVTMTCSASSSVSYMHWYQQKSGTSPKRWIYDSSKLASGVPARFSGSGSGTSYSLTISSMEAEDAATYYCQQWSSNPLTFGAGTKLELK
–	binds	binds	–	1 nM	SC16.56 (antibody, V domains shown, murine mAb; V regions only) VH: QIQLVQSGPELKKPGETVKISCKASGYTFTNYGMNWVKQAPGKGLKWMAWINTYTGEPTYADDFKGRFAFSLETSASTASLQIINLKNEDTATYFCARIGDSSPSDYWGQGTTLTVSS VL: SIVMTQTPKFLLVSAGDRVTITCKASQSVSNDVVWYQQKPGQSPKLLIYYASNRYTGVPDRFAGSGYGTDFSFTISTVQAEDLAVYFCQQDYTSPWTFGGGTKLEIR
–	binds	binds	–	0.2 nM	SC16.34 (antibody, V domains shown, murine mAb; V regions only) VH: QIQLVQSGPELKRPGETVKISCKASGYTFTNYGMNWVKQAPGKGLKWMGWINTYTGDPTYADDFKGRFAFSLETSASTAYLQINNLKNEDTATYFCARIGGNSPSDYWGQGTSLTVSS VL: SIVMTQTPKFLLVSAGDRVTITCKASQSVSNDVAWYQQKPGQSPKLLIYYASNRYSGVPDRFTGSGYGTDFTFTISTVQAEDLAVYFCQQDYSSPWTFGGGTKLEIK
–	binds	binds	–	0.5 nM	SC16.15 (antibody, V domains shown, murine mAb; V regions only) VH: QVQLQQSGAELAKPGASVKMSCKASGYTFTRYWIHWIKQRPGQGLEWIGYINPTTVYTEFNQNFKDKATLTADKSSTTASMQLSSLTSEDSAVYYCARGGSNFFDYWGQGTTLTVSS VL: DIQMTQSPASLAASVGETVAITCRASENIYYNLAWYQQKQGKSPQLLIYTANSLEDGVPSRFSGSGSGTQYSLKINSMQPEDSATYFCKQAYDVPPTFGGGTKLEIK
–	–	binds	–	0.9 nM	SC16.65 (antibody, V domains shown, murine mAb; V regions only) VH: QVTLKESGPGILQPSQTLSLTCSFSGFSLSTSGMGVGWIRQPSGKGLEWLALIWWDDVKRYNPALKSRLTISKDASSSQVFLKIASVDTADTATYYCARIASYDYDVVYAMDYWGQGTSVSVSS VL: QIVLTQSPALMSASPGEKVTMTCSVTSSVSYMYWYQQKPRSSPKPWIYLTSNLASGVPARFSGSGSGTSYSLTISSVEAEDAATYYCQQWRNNPFTFGSGTKVEIK

The remaining lines, values behind:

Binder	Kd (human DLL3 [1])	binding result [2]	binding result [3]	Kd (human DLL3 [4])	Kd (human DLL3 [5])
SC16.4 (antibody, V domains shown, murine mAb; V regions only) VH: QIQLVQSGPELKKPGETVKISCKASGYTFTDYSMHWVKQAPGKGLKWMGWINTETGEPGYADDFKGRFAFSLETSASTAYLQINNLKNEDTATYFCARYDGYAMDYWGQGTSVTVSS VL: DIQMTQTTSSLSASLGDRVTISCRASQDISNYLNWYQQKPDGTVKLLIYYTSRLHSGVPSRFSGSGSGTDYSLTISNLELEDIATYFCQQGDMLPWTFGGGTKLEIK	0.5 nM	binds	binds	–	–
SC16.39 (antibody, V domains shown) VH: EVKLEESGGGLVQFGGSMKLSCAASGFTFSDAWMDWVRQSPEKGLEWVAEIRNKANNHATYYPESVKGRFTISRDDSKSRVYLQMNNLRAEDTGIYYCTGYSSFAYWGQGTLVTVSA VL: DIQMTQTTSSLSASLGDRVTISCRASQDVINYLNWYQQKPDGTVKLLIYYTSRLHSGVPSRFSGSGSRTDYSLTISNLEPEDIATYYCQQYSERPYTFGGGTKLEIK	–	–	–	1 nM	–
SC16.8 (antibody, V domains shown, murine mAb; V regions only) VH: QAQLQQSGAELVRPGTSVKVSCKASGYAFTNYLIEWVKQRPGQGLEWIGVINPGTGGTNYNENFKGKATLTADKSSSTAYMQLSSLTSDDSAVYFCARSPYDYHEGAMDYWGQGTSVTVSS VL: EIQMTQSPSSMSASLGDRITITCQATQDIVKNLNWYQQKPGKPPSFLIYYAIELAEGVPSRFSGSGSGSDYSLTISNLESEDFADYYCLQFYEFPFTFGAGTKLELK	0.5 nM	binds	binds	–	–
SC16.67 (antibody, V domains shown) VH: EVQLVETGGGLVQPKGSLKLSCAVSAFTFTTYAMNWVRQAPGKGLEWVARIRNKSNNYATYYADSVKDRFTISRDDSQSMLYLQMNNLKIEDTAMYYCVFYYDYVYWGQGTLVTVSA VL: QAVVTQESALTTSPGETVTLTCRSSTGAVTTSNYANWIQEKPDHLFTGLIGGTNNRAPGVPARFSGSLIGDKAALTITGAQTEDEAIYFCGLWYSNHLVFGGGTKLTVL	0.5 nM	–	–	–	–
SC16.7 (antibody, V domains shown, murine mAb; V regions only) VH: EVQLQQSGPELVKPGASVKISCKASGYSFTGYKMHWVKQSHVKSLEWIGRINPYNGATSYNQNFKDKATLTVDKSSSTAYMDLHSLTSEDSAVYFCARGDYRYDWFAYWGQGTLVTVSA VL: NIMMTQSPSSLAVSAGEKVTMSCKSSQSVLYSSNQKNYLAWYQQKPGQSPKLLIYWASTRESGVPDRFTGSGSGTDFTLTISTVQVEDLAVYYCHQYLSSWTFGGGTKLEIK	–	–	binds	–	–
SC16.10 (antibody, V domains shown, murine mAb; V regions only) VH: QVTLKESGPGILQSSQTLSLTCSFSGFSLSTSGMGVGWIRQPSGKGLEWLAHIWWDDVKRYNPVLKSRLTISKDTSSSQVFLKIASVDTADTATYYCARLVDDLYYFDYWGQGTTLTVSS VL: QIVLTQSPAIMSASLGERVTMTCTASSSVSSSYLHWYQQKPGSSPKLWIYSTSNLASGVPTRFSGSGSGTSYSLTISSMEAEDAATYYCHQYHRSPFTFGSGTKLEIK	4 nM	–	binds	–	–
SC16.13 (antibody, V domains shown) VH: QVTLKESGPGILQPSQTLSLTCSFSGFSLSTSGMGVGWIRQPSGKGLEWLAHIWWDDVKRYNPALKSRLTISKDTSSSQVFLKIASVDTADTATYYCARIVSFDNDVVSAMDYWGQGTSVTVSS VL: QIVLTQSPALVSASPGEKVTMTCSASSSVSYMYWYQQKPRSSPKPWIYLTSNLASGVPARFSGSGSGTSYSLTISSMEAEDAATYYCQQWRSNPFTFGSGTKLEIK	–	–	–	–	2 nM
